{"source": "patent US20140079722A1", "about": "“EXTRACELLULAR TARGETED DRUG CONJUGATES” (CENTROSE, LLC, priority 2011, published 2014)", "molecules": {"B1": {"name": "M53-PEG24-CEN10-110 (antibody, V domains shown)", "VH": "EVQLVESGGGLVQPKGTLKLSCAASGFSFNTHAMNWVRQAPGKSLEWVARTMSKSNNYATYYADSVKDRFIIRADDSQSMLYLQMNNLKTEDTAMYYCVRDDPKRGMDYWGQGTSVTVSS", "VL": "GIVMSQSPSSLAVSVGEKVTMSCKPSQSLLYSRNQKIYLAWYQQKPGQSPKLLIYWASTRESGVPDRFTGSGSGTDFTLIISSVRAEDLAVYYCQQYYNYPLTFGAGTKLELKR", "modifications": "PEG24-CEN10-110 on reduced cysteine thiols; positions not given; PEG24-CEN10-110 (scillarenin linker-drug with lysine in the linker) on reduced cysteine thiols; positions not given"}, "B2": {"name": "M53-PEG24-CEN-319 (antibody, V domains shown)", "VH": "B1 VH", "VL": "B1 VL", "modifications": "PEG24-CEN-319 on reduced cysteine thiols; positions not given; PEG24-CEN-319 (digitoxigenin 4-amino-xyloside PEG24 maleimide linker-drug) on reduced cysteine thiols; positions not given"}, "B3": {"name": "cM53-PEG24-CEN09-106 (antibody, human IgG1, kappa, V domains shown)", "VH": "B1 VH with V2C, R73S, A74R", "VL": "B1 VL", "modifications": "PEG24-CEN09-106 on cysteine thiols; positions not stated (cysteine in place of valine at position 2 of SEQ ID NO: 23)"}, "B4": {"name": "scFv-PEG24-CEN09-106 (scFv)", "scFv": "ECQLVESGGGLVQPKGTLKLSCAASGFSFNTHAMNWVRQAPGKSLEWVARTMSKSNNYATYYADSVKDRFIISRDDSQSMLYLQMNNLKTEDTAMYYCVRDDPKRGMDYWGQGTSVTVSSGGGGSGGGGSGGGGSGIVMSQSPSSLAVSVGEKVTMSCKPSQSLLYSRNQKIYLAWYQQKPGQSPKLLIYWASTRESGVPDRFTGSGSGTDFTLIISSVRAEDLAVYYCQQYYNYPLTFGAGTKLELK", "modifications": "PEG24-CEN09-106 (scillarenin linker-drug) on the unpaired cysteine (position 23 of SEQ ID NO: 30)"}, "B5": {"name": "M53-PEG24-CEN09-107 (antibody, V domains shown)", "VH": "B1 VH", "VL": "B1 VL", "modifications": "PEG24-CEN09-107 on reduced cysteine thiols; positions not given; PEG24-CEN09-107 (scillarenin 4-amino-riboside PEG24 maleimide linker-drug) on reduced cysteine thiols; positions not given"}, "B6": {"name": "scFv-PEG12-CEN09-016: scFv conjugate with PEG12 linker, 1 drug per scFv (conjugate)", "scFv": "B4 scFv"}, "B7": {"name": "scFv-PEG36-CEN09-016: scFv conjugate with PEG36 linker, 1 drug per scFv (conjugate)", "scFv": "B4 scFv"}}, "key": {"A549 xenograft": {"tested_on": "A549 xenograft", "assay": "A549 xenograft model (cell implant)", "format": "in vivo, Hsd:Athymic Nude-Foxn1nu mice", "details": "controls: paclitaxel 15 mg/kg q2dx5; control conjugate (loading 7) 10 mg/kg i.v. q7dx3; A549 xenograft", "procedure": "Briefly, to establish a non-small-cell lung cancer disease model, 6×10^6 A549 cells in 200 μL, RPMI1640+50% Matrigel HC (BD Biosciences, San Jose, Calif.) were implanted into the left flank of Hsd:Athymic Nude-Foxn1^nu mice (Harlan, Indianapolis, Ind.). Therapy with antibody-drug conjugates was then initiated when the tumor volume in groups of 5 animals averaged ˜300 mm^3. Treatment using vehicle control, 0.1 and 1 mg/kg M53-PEG24-CEN09-106, and 10 mg/kg control M53-PEG24-CEN09-106 (a control conjugate with a drug loading of 7 drugs per antibody where the antibody's target is not on the cell surface but drug and linker and antibody isotype are the same as M53-PEG24-CEN09-106) were all administered i.v. using the schedule of one injection every 7 days with 3 total injected doses (q7d×3). 15 mg/kg paclitaxel dosed at q2d×5 served as a positive control treatment group. Using this schedule, tumor volumes were measured for each group using calibrated vernier calipers and plotted against first day of tumor implant for 54 days post-implant and 40 days post-initial dose, to produce the graph shown in FIG. 3."}, "A549 xenografts": {"tested_on": "A549 xenografts", "assay": "Second A549 xenograft study (tumor fragments)", "format": "in vivo, female HRLN nu/nu mice", "details": "for growth inhibition of the tumor compared to vehicle: 100 days post-initial dose, EDC (loading 3) 5 mg/kg i.p. q3dx4, scillarenin aminoxyloside 20 mg/kg q2dx5, paclitaxel 15 mg/kg q1dx5; for weight loss: same dosing as efficacy arms, second A549 xenograft study", "procedure": "Briefly, to establish a non-small-cell lung cancer disease model, subcutaneous A549 xenografts were initiated in female HRLN nu/nu mice by implanting 8 mm^3 A549 tumor fragments subcutaneously into the left flank. Tumor growth was monitored, and mice bearing tumors of 60-180 mm^3 were selected for the study. Tumor-bearing mice (n=7 mice/group) with a group average tumor volume of approximately 110 mm^3 were treated i.p. with 5 mgs/kg M53-PEG24-CEN09-106 at q3d×4, 20 mg/kg scillarenin-4-amino-deoxy-L-xylopryanoside (an intermediate in the construction of M53-PEG24-CEN09-106 and known cytotoxin) at q2dx5, and 15 mg/kg paclitaxel at q1d×5. Tumor volumes were measured for each group using calibrated vernier calipers plotted against day of first dose for 100 days to produce the graph shown in FIG. 4.\nPaclitaxel at its optimum dosing produced 80% growth inhibition of the tumor when compared to vehicle."}, "H460 xenograft": {"tested_on": "H460 xenograft", "assay": "H460 xenograft model", "format": "in vivo, Hsd:Athymic Nude-Foxn1nu mice", "details": "H460 xenograft", "procedure": "Briefly, to establish a large-cell lung cancer disease model, 1×10^6 H-460 cells in 100 μL RPMI1640+30% Matrigel HC (BD Biosciences, San Jose, Calif.) were implanted into the left flank of Hsd:Athymic Nude-Foxn1^nu mice (Harlan, Indianapolis, Ind.). Therapy was initiated when the tumor size in groups of 5 animals averaged ˜200 mm^3. Treatment using vehicle control, M53-PEG24-CEN09-106 at 0.1 and 1 mg/kg, and 10 mg/kg control M53-PEG24-CEN09-106 (as described above) consisted of multiple i.v. injections using the schedule of one injection every 7 days for 2 injections (q7d×2). Paclitaxel served as a positive control treatment group and was dosed i.v. at 15 mg/kg using the schedule of one injection every 2 days for 5 injections (q2d×5). Using this schedule, tumor volumes were measured for each group using calibrated vernier calipers and plotted against day of tumor implant for 24 days post-implant and 12 days post-initial dose, graphed and shown in FIG. 5."}, "PANC-1 xenograft": {"tested_on": "PANC-1 xenograft", "assay": "PANC-1 xenograft model, alone and with gemcitabine", "format": "in vivo, C.B-17/IcrHsd-Prkdc scid Lyst bg mice", "details": "gemcitabine alone 60 mg/kg i.p. q3dx5", "procedure": "A disease model of pancreatic cancer was established by implanting 5×10^6 PANC-1 cells in 100 μL DMEM into the left flank of 7 week old female C.B-17/IcrHsd-Prkdc^scidLyst^bg mice. Mice were then treated with M53-PEG24-CEN09-106 with a drug loading of 8 and/or gemcitabine when the tumor size in groups of 3 animals averaged ˜500 mm^3. Treatments consisted of either vehicle control, M53-PEG24-CEN09-106 at 0.2, 1 and 5 mg/kg, with and without 60 mg/kg gemcitabine or 60 mg/kg gemcitabine alone and consisted of multiple injections using the M53-PEG24-CEN09-106 schedule of one injection every 7 days for 3 injections (q7d×3) administered i.v. and the gemcitabine schedule of one injection every 3 days for 5 injections (q3d×5) administered i.p. Tumor volumes were measured for each group using calibrated vernier calipers and plotted against first day of tumor implant for 28 days post-initial dose, graphed and shown in FIG. 6."}, "NSCLC cell line A549 [1]": {"tested_on": "NSCLC cell line A549", "assay": "In vitro cytotoxicity of M53-PEG24-CEN09-106 drug combinations", "format": "cell-based", "details": "Homo sapiens", "procedure": "The studies employed a fixed ratio of the drugs (based on the EC50 values of each alone) across a concentration gradient. Single drug ED50 values were first determined and from those values combination analysis were prepared by 3-fold serial dilutions in 8 steps for all compounds. Combinations were tested using fixed concentration ratios. […] All compound concentrations and combinations were tested in duplicate. Cell culture and cell viability assays were performed as described."}, "human dysadherin [2]": {"target": "T1, human dysadherin (human, UniProt Q96DB9 22-178)", "T1 chain": "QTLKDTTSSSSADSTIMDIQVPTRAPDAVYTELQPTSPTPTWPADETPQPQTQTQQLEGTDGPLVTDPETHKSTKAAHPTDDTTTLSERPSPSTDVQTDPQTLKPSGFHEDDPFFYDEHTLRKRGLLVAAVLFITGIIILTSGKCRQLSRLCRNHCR", "assay": "cell-based or functional assay"}, "human dysadherin [3]": {"target": "T1, human dysadherin", "assay": "cell-based or functional assay"}, "NSCLC cell line A549 [4]": {"tested_on": "NSCLC cell line A549", "assay": "In vitro activity of chimeric and scFv conjugates against A549", "details": "A549 cells; scFv conjugates", "procedure": "Cells were incubated with the agent/conjugate for 3 days before cell viability testing. Cell viability testing used the CellTiter-Glo luminescent cell viability assay (Promega, Madison, Wis.)."}}, "note": "Positions count from the first letter of the chain named.", "data": [{"molecule": "CC(=O)O[C@H]1C(=O)[C@@]2(C)[C@H]([C@H](OC(=O)c3ccccc3)[C@]3(O)C[C@H](OC(=O)[C@H](O)[C@@H](NC(=O)c4ccccc4)c4ccccc4)C(C)=C1C3(C)C)[C@]1(OC(C)=O)CO[C@@H]1C[C@@H]2O", "note": "[Paclitaxel, reference compound]", "values": [{"measurement": "growth inhibition of the tumor compared to vehicle", "setting": "A549 xenograft", "value": 45, "unit": "%"}, {"measurement": "growth inhibition of the tumor compared to vehicle", "setting": "A549 xenografts", "value": 80, "unit": "%"}, {"measurement": "weight loss", "setting": "A549 xenografts", "value": 11, "unit": "%"}, {"measurement": "weight loss", "setting": "H460 xenograft; EDC 0.1 mg/kg q7dx2, paclitaxel 15 mg/kg q2dx5", "value": 15, "unit": "%"}, {"measurement": "growth inhibition of the tumor compared to vehicle", "setting": "H460 xenograft; controls: paclitaxel 15 mg/kg i.v. q2dx5, control conjugate 10 mg/kg i.v. q7dx2", "value": 78, "unit": "%"}]}, {"molecule": "Nc1ccn([C@@H]2O[C@H](CO)[C@@H](O)C2(F)F)c(=O)n1", "note": "[Gemcitabine, reference compound]", "values": [{"measurement": "growth inhibition of the tumor compared to vehicle", "setting": "PANC-1 xenograft", "value": 68, "unit": "%"}]}, {"molecule": "CCN(CC)CCCCNc1ncc2cc(-c3cc(OC)cc(OC)c3)c(NC(=O)NC(C)(C)C)nc2n1", "note": "[PD 0173074]", "values": [{"measurement": "EC50", "setting": "NSCLC cell line A549 [1]; A549", "value": 29000, "unit": "nM"}]}, {"molecule": "C[C@]12CC[C@H](OC3OC[C@H](N)[C@@H](O)[C@@H]3O)C=C1CCC1C2CC[C@]2(C)[C@@H](c3ccc(=O)oc3)CC[C@]12O", "note": "(stereo partly drawn) [Scillarenin-4-amino-4-deoxy-L-xylopyranoside]", "values": [{"measurement": "growth inhibition of the tumor compared to vehicle", "setting": "A549 xenografts", "value": 60, "unit": "%"}, {"measurement": "weight loss", "setting": "A549 xenografts", "value": 8, "unit": "%"}]}, {"molecule": "CO[C@H]1C[C@@H]2CC[C@@H](C)[C@@](O)(O2)C(=O)C(=O)N2CCCC[C@H]2C(=O)O[C@H]([C@H](C)C[C@@H]2CC[C@@H](OCCO)[C@H](OC)C2)CC(=O)[C@H](C)/C=C(\\C)[C@@H](O)[C@@H](OC)C(=O)[C@H](C)C[C@H](C)/C=C/C=C/C=C/1C", "note": "[Everolimus]", "values": [{"measurement": "EC50", "setting": "NSCLC cell line A549 [1]; drug alone, A549 cells, read-out: EC50", "value": 11, "unit": "nM"}]}, {"molecule": "B1", "values": [{"measurement": "EC50, cytotoxicity (CellTiter-Glo cell viability), A375 cells", "setting": "human dysadherin [2]", "value": 0.5, "unit": "nM"}, {"measurement": "EC50, cytotoxicity (CellTiter-Glo cell viability), A549 cells", "setting": "human dysadherin [2]", "value": 0.1, "unit": "nM"}, {"measurement": "EC50, cytotoxicity (CellTiter-Glo cell viability), H460 cells", "setting": "human dysadherin [2]", "value": 0.2, "unit": "nM"}]}, {"molecule": "B2", "values": [{"measurement": "EC50, cytotoxicity (CellTiter-Glo cell viability), A549 cells", "setting": "human dysadherin [2]", "value": 1.6, "unit": "nM"}, {"measurement": "EC50, cytotoxicity (CellTiter-Glo cell viability), H929 cells", "setting": "human dysadherin [2]", "value": "> 200", "unit": "nM"}, {"measurement": "EC50, cytotoxicity (CellTiter-Glo cell viability), PANC cells", "setting": "human dysadherin [2]", "value": "> 200", "unit": "nM"}]}, {"molecule": "B3", "values": [{"measurement": "EC50, in vitro activity against A549 cells", "setting": "human dysadherin [3]", "value": 2, "unit": "nM"}]}, {"molecule": "B4", "values": [{"measurement": "EC50, in vitro activity against A549 cells", "setting": "human dysadherin [3]", "value": 1.6, "unit": "nM"}]}, {"molecule": "B5", "values": [{"measurement": "EC50, cytotoxicity (CellTiter-Glo cell viability), A375 cells", "setting": "human dysadherin [2]", "value": 2.6, "unit": "nM"}, {"measurement": "EC50, cytotoxicity (CellTiter-Glo cell viability), A549 cells", "setting": "human dysadherin [2]", "value": 0.5, "unit": "nM"}]}, {"molecule": "B6", "values": [{"measurement": "EC50", "setting": "NSCLC cell line A549 [4]", "value": 9.1, "unit": "nM"}]}, {"molecule": "B7", "values": [{"measurement": "EC50", "setting": "NSCLC cell line A549 [4]", "value": 1.1, "unit": "nM"}]}]}
